Test: Phase 1 clinical study of BA3011: safety (adverse events, DLT, MTD, RP2D)
Type: in vivo, human
Excerpt: MTD evaluation will be based on the DLT-evaluable Population. The DLT-evaluable Population includes all patients enrolled in Phase 1 dose escalation who receive at least 1 full assigned dose of BA3011 and complete the safety follow-up through the DLT-evaluation period (defined as the time period from the first dose of BA3011 through 21 days post Dose 1) or experience any DLT during the DLT-evaluation period. Non-DLT-evaluable patients will be replaced. The safety evaluation will be based on the As-Treated Population. Adverse events (AEs) will be coded by Medical Dictionary for Regulatory Activities (MedDRA) and graded according to the NCI CTCAE v4.03, and the type, incidence, severity, and relationship to each IP will be summarized. If any associations of interest between AEs and baseline characteristics are observed, additional stratified results may be presented. All treatment-emergent AEs will be summarized by MedDRA system organ class and preferred term. Laboratory abnormalities with toxicity grades according to the NCI CTCAE will be summarized.
A DLT is defined as meeting 1 of the following criteria during the 21-day DLT evaluation period or a treatment-related toxicity of any grade requiring dose delay of 1 week or more between the first and second cycles: • Non-hematologic Toxicity • For non-hematologic toxicities, DLT will be defined as any National Cancer Institute (NCI) Common Terminology Criteria for Adverse Events (CTCAE) v4.03 (published 14 Jun. 2010) Grade 3 or greater toxicity at least possibly related to treatment, except for: • Grade 3 fatigue. • Grade 3 nausea and vomiting lasting less than 24 hours. • Grade 3 non-hematologic laboratory abnormalities that are asymptomatic and resolve to Grade 1 or baseline (if the patient entered the study with existing toxicity) within 14 days. • Grade 3 or 4 allergic or hypersensitivity reaction at first occurrence in the absence of prophylactic steroid that resolves in less than 6 hours with appropriate clinical intervention
• DLT for hematologic toxicity, using NCI CTCAE v4.03, will be defined as: • Grade 4 neutropenia lasting greater than 7 days. • Grade 3 or 4 febrile neutropenia. • Grade 4 platelet count (<25,000/mm3) at any time.
Study BA3011-001 was an ongoing, multi-center, open-label, Phase 1/2 first-in-human trial of BA3011.
In Phase 1 (NCT03425279), BA3011 was administered once (Q3W) or twice (2Q3W) every 3 weeks via intravenous (IV) infusion.

[1] = All TEAEs, All Grades, sarcoma patients, Phase 1
[2] = All TEAEs, Grade 3, sarcoma patients, Phase 1
[3] = All TEAEs, Grade 4, sarcoma patients, Phase 1
[4] = Related TEAEs, All Grades, sarcoma patients, Phase 1
[5] = Related TEAEs, Grade 3, sarcoma patients, Phase 1
[6] = Related TEAEs, Grade 4, sarcoma patients, Phase 1
[7] = Total, 26 sarcoma patients, Phase 1

B1: Mecbotamab vedotin (conjugate, chains of the INN, looked up)
VH: EVQLVQSGAEVKKPGATVKISCKVSGYSFWGATMNWIRQPPGKGLEWIGLIKPSNGGTSYNQKFKGRVTISADKSISTAYLQWSSLKASDTAMYYCAHGHYESYEAMDYWGQGTLVTVSS
VL: DIQMTQSPSSLSASVGDRVTITCKASQDVVSAVAWYQQKPGQAPRLLIYWQDTRHTGVPSRFSGSGSGTEFTLTISSLQPDDFATYYCQEHFSPPLTFGQGTKVEIK
modifications: MC-vc-PAB-MMAE conjugate
Question: Which results are given for B1?
Answer: Stomatitis, % [1]: (3.8) %; Vomiting, % [1]: (23.9) %; Anemia, % [2]: (7.7) %; Aspartate aminotransferase increased, % [2]: (3.8) %; Blood bilirubin increased, % [2]: (3.8) %; Constipation, % [2]: (3.8) %; Hypokalemia, % [2]: (11.5) %; Hyponatremia, % [2]: (7.7) %; Lymphocyte count decreased, % [2]: (3.8) %; Nausea, % [2]: (3.8) %; Neutrophil count decreased, % [2]: (15.4) %; Patients with at least one TEAE, % [2]: (57.7) %; Peripheral neuropathy, % [2]: (3.8) %; Stomatitis, % [2]: (3.8) %; Vomiting, % [2]: (3.8) %; Neutrophil count decreased, % [3]: 3.8%; Patients with at least one TEAE, % [3]: 7.7%; on-target toxicity to normal AXL-expressing tissue (Phase 1): No clinically meaningful on-target toxicity was observed; rate of constipation (Phase 1): low; dose-limiting toxicities (Phase 1, highest dose tested): limited to monomethyl auristatin E (MMAE) conjugate-associated toxicity at the highest dose tested, including reversible neutropenia; SAE related to treatment (grade 2 hepatic encephalopathy) (Phase 1 sarcoma patients): 1 patient; patients with grade 3 related TEAEs (Phase 1 sarcoma patients): Eleven; patients with grade 4 neutropenia (Phase 1 sarcoma patients): 1 patient; treatment-emergent adverse events (TEAEs) leading to death (Phase 1 sarcoma patients): no treatment-emergent adverse events (TEAEs) leading to death; treatment-related TEAEs leading to treatment discontinuation (Phase 1 sarcoma patients): 2 (7.7%) patients; Alanine aminotransferase increased, % [4]: (38.5) %; Alopecia, % [4]: (23.1) %; Anemia, % [4]: (3.8) %; Arthralgia, % [4]: (3.8) %; Aspartate aminotransferase increased, % [4]: (42.3) %; Blood alkaline phosphatase increased, % [4]: (19.2) %; Blood bilirubin increased, % [4]: (3.8) %; Bone pain, % [4]: (3.8) %; Constipation, % [4]: (15.4) %; Decreased appetite, % [4]: (15.4) %; Diarrhea, % [4]: (19.2) %; Fatigue, % [4]: (42.3) %; Hypokalemia, % [4]: (15.4) %; Hyponatremia, % [4]: (3.8) %; Lymphocyte count decreased, % [4]: (7.7) %; Nausea, % [4]: (38.5) %; Neutrophil count decreased, % [4]: (26.9) %; Patients with at least one TEAE, % [4]: (84.6) %; Peripheral neuropathy, % [4]: (15.4) %; Stomatitis, % [4]: (3.8) %; Vomiting, % [4]: (19.2) %; Anemia, % [5]: (3.8) %; Aspartate aminotransferase increased, % [5]: (3.8) %; Blood bilirubin increased, % [5]: (3.8) %; Hypokalemia, % [5]: (11.5) %; Hyponatremia, % [5]: (3.8) %; Lymphocyte count decreased, % [5]: (3.8) %; Nausea, % [5]: (3.8) %; Neutrophil count decreased, % [5]: (15.4) %; Patients with at least one TEAE, % [5]: (42.3) %; Peripheral neuropathy, % [5]: (3.8) %; Stomatitis, % [5]: (3.8) %; Vomiting, % [5]: (3.8) %; Neutrophil count decreased, % [6]: 3.8%; Patients with at least one TEAE, % [6]: 3.8%; Any TEAE, % of patients [7]: (100.0)%; Any TEAE, no. of patients [7]: 26; Any related serious TEAE, % of patients [7]: (3.8%); Any related serious TEAE, no. of patients [7]: 1; Any serious TEAE, % of patients [7]: (34.6%); Any serious TEAE, no. of patients [7]: 9; Related TEAE leading to treatment discontinuation, no. of patients [7]: 2; Related TEAEs with CTCAE grade 3 or 4, % of patients [7]: (46.2%); Related TEAEs with CTCAE grade 3 or 4, no. of patients [7]: 12; TEAE leading to treatment discontinuation, % of patients [7]: (7.7%); TEAE leading to treatment discontinuation, no. of patients [7]: 2; TEAE with CTCAE grade 3 or 4, % of patients [7]: (65.4%); TEAE with CTCAE grade 3 or 4, no. of patients [7]: 17; TEAEs leading to death, no. of patients [7]: 0; transient grade 1-2 liver enzyme elevations (seen during cycle 1 treatment): generally did not re-occur upon re-treatment; creatinine levels (throughout treatment): generally unchanged throughout treatment
